Biological target: FLAG-CRAF (1-648)

B1: human placental GSTP1 (Sigma-Aldrich) (protein)
chain: PPYTVVYFPVRGRCAALRMLLADQGQSWKEEVVTVETWQEGSLKASCLYGQLPKFQDGDLTLYQSNTILRHLGRTLGLYGKDQQEAALVDMVNDGVEDLRCKYISLIYTNYEAGKDDYVKALPGQLKPFETLLSQNQGGKTFIVGDQISFADYNLLDLLLIHEVLAPGCLDAFPLLSAYVGRLSARPKLKAFLASPEYVNLPINGNGKQ
phosphorylation of MEK1 by FLAG-CRAF (in vitro kinase assay, Western blot for p-MEK1/2): GSTP1 was found to enhance the phosphorylation of MEK1 by FLAG-CRAF (compare lanes 3 and 5 in FIG. 3)
